Several values for one entry are separate records, joined by “and”; a condition that tells them apart may be missing. Identical values can stand only once.
Molecular target: the molecule itself
Experiment: native gel or EMSA

Protein | stoichiometry N
Uncoupling protein 2 (UCP2) (natural protein, human, UniProt P55851 1-309, looked up) MVGFKATDVPPTATVKFLGAGTAACIADLITFPLDTAKVRLQIQGESQGPVRATASAQYRGVMGTILTMVRTEGPRSLYNGLVAGLQRQMSFASVRIGLYDSVKQFYTKGSEHASIGSRLLAGSTTGALAVAVAQPTDVVKVRFQAQARAGGGRRYQSTVNAYKTIAREEGFRGLWKGTSPNVARNAIVNCAELVTYDLIKDALLKANLMTDDLPCHFTSAFGAGFCTTVIASPVDVVKTRYMNSALGQYSSAGHCALTMLQKEGPRAFYKGFMPSFLRLGSWNVVMFVTYEQLKRALMAACTSREAPF | 2 and 4
bovine ADP/ATP carrier protein isoform 1 (AAC1) (natural protein) SDQALSFLKDFLAGGVAAAISKTAVAPIERVKLLLQVQHASKQISAEKQYKGIIDCVVRIPKEQGFLSFWRGNLANVIRYFPTQALNFAFKDKYKQIFLGGVDRHKQFWRYFAGNLASGGAAGATSLCFVYPLDFARTRLAADVGKGAAQREFTGLGNCITKIFKSDGLRGLYQGFNVSVQGIIIYRAAYFGVYDTAKGMLPDPKNVHIIVSWMIAQTVTAVAGLVSYPFDTVRRRMMMQSGRKGADIMYTGTVDCWRKIAKDEGPKAFFKGAWSNVLRGMGGAFVLVLYDEIKKFV | 2

Reference: paper doi:10.1101/430835 (bioRxiv, 2019)
